Patent publication US20210063414A1, “METHODS FOR PREVENTING AND/OR TREATING BONE LOSS CONDITIONS BY MODULATING IRISIN” (Dana-Farber Cancer Institute, Inc., priority 2018, published 2021)

How the values were obtained:
[1] = biological target: T1, MLO-Y4 cell surface proteins (Mus musculus, UniProt Q9CY64); assay: Crosslinking/co-immunoprecipitation/mass spectrometry (TMT quantitative proteomics) to identify irisin receptors; assay type: binding; conditions: co-precipitated protein Blvra (BIEA_MOUSE)
T1 construct: endogenous in cells; host or cells: MLO-Y4
T1 sequence (Q9CY64 3-295): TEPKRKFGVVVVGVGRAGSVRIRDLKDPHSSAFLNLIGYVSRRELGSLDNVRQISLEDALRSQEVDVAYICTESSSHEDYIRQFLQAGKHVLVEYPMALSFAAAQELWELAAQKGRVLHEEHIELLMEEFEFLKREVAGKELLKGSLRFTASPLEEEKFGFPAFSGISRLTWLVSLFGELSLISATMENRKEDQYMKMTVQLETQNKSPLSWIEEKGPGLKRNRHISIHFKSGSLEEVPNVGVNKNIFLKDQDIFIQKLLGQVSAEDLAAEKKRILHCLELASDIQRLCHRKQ
In short: (§1)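 Relative protein abundance came from 6-plex TMT MS3 quantitation on an Orbitrap Fusion Lumos, after in-gel trypsin digestion of Coomassie-stained SDS-PAGE lanes. Input was a Ni-NTA pulldown (250 mM imidazole elution) of lysates from murine MLO-Y4 cells. These cells were treated on ice with His-tagged irisin or adipsin (10 nM, 20 min) in serum-free medium, then crosslinked with 1.5 mM DTSSP for 30 min.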

[2] = biological target: T2, MLO-Y4 cell surface proteins (Mus musculus, UniProt Q9D051); assay: as above; assay type: binding; conditions: co-precipitated protein Pdhb (ODPB_MOUSE)
T2 construct: endogenous in cells; host or cells: MLO-Y4
T2 sequence (Q9D051 31-359): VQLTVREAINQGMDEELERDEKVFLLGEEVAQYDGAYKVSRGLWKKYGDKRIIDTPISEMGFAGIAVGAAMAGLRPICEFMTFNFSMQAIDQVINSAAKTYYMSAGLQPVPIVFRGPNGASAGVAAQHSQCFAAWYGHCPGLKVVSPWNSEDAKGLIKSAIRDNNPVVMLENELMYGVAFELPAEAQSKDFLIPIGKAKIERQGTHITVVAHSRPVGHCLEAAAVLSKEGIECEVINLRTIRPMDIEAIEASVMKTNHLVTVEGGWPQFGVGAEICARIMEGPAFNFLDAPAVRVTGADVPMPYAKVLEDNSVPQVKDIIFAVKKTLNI
In short: as §1

## adipsin
[1]
  TMT signal-to-noise ratio: 302.865
[2]
  TMT signal-to-noise ratio: 365.712
